According to article PMC9282883:

Target: SARS-CoV-2 RBD WT (for SPR binding assays) (SARS-CoV-2) (UniProt P0DTC2)

S309 IgG1 (antibody) was tested, and the IC50, neutralisation of authentic SARS-CoV-2 (SARS-CoV-2-Nluc) on Vero E6 cells was 0.0789 µg/mL and the IC90, neutralisation of authentic SARS-CoV-2 (SARS-CoV-2-Nluc) on Vero E6 cells was 0.3 µg/mL.
